# Like-named read-outs stand apart in the source and are kept apart here. *1 amine or outer side, *2 acyl side, *3 side chain or, on linkers, in order; H or OH if unused. Bridges are numbered along the chain shown (N, C = ends). Where no end group is shown, it is not given here. Side-chain parts run from the residue outwards. [ ]: non-standard residue; d: D form. The star is where a group is joined. γGlu = O=C(O)[C@H](CCC(=O)[*:2])N[*:1]; Stearoyl = CCCCCCCCCCCCCCCCCC(=O)*; AEEA = NCCOCCOCC(=O)O; Aib = CC(C)(N)C(=O)O
# Key:
# Human glucagon receptor [1] = biological target: T1, Human glucagon receptor (human, UniProt P47871)
# Human GLP-1 receptor [2] = biological target: T2, Human GLP-1 receptor (human, UniProt P43220)
# Human glucagon receptor [3] = biological target: T1, Human glucagon receptor; assay: cell-based or functional assay
# Human GLP-1 receptor [4] = biological target: T2, Human GLP-1 receptor; assay: cell-based or functional assay
Molecule,"EC50(pM), CRE-driven luciferase activity (Human glucagon receptor [1]) [pM]","EC50(pM), CRE-driven luciferase activity (Human GLP-1 receptor [2]) [pM]","EC50(pM), CRE-driven luciferase activity (Human glucagon receptor [3]) [pM]","EC50(pM), CRE-driven luciferase activity (Human GLP-1 receptor [4]) [pM]"
MEDI0382 (peptide),10 to 100,< 10,,
H[Aib]QGTFTSDK([AEEA-AEEA-γGlu-Stearoyl])SKYLDKRRAEDFVQWLMNTK (linker 16-20 via 4‑carbonylpiperidin‑1‑yl) [Compound 32],,,< 10,< 10
H-H[Aib]QGTFTSDK([AEEA-AEEA-γGlu-Stearoyl])SKYLDDRRAKDFVQWLMNTK-OH (bridge 16-20; not fully specified (bridges); printed as H-HAibQGTFTSDZSKYLDDRRAKDFVQWLMNTK-OH) [Compound 38],,,< 10,< 10
H[Aib]QGTFTSDK([AEEA-AEEA-γGlu-Stearoyl])SKYLDKRRAEDFVQWLMNTK (lactam 16-20) [Compound 21],,,< 10,< 10
HXQGTFTSDXSKYLDXRRAQDFVQWLMNTK (Aib at positions 2 and 16; Z at position 10 = Lys([(2-(2-(2-aminoethoxy)ethoxy)acetoyl)2]-[gammaglutamicacid]-[17-carboxyheptadecanoyl])) [Compound 43],,,> 1000,> 1000
"H[Aib]QGTFTSDK([AEEA-AEEA-γGlu-Stearoyl])SKYLDCRRACDFVQWLMNTK (linker 16-20 via 1,3‑phenyhenedimethyl) [Compound 22]",,,< 10,< 10
HXQGTFTSDXSKYLDXRRAQDFVQWLMNTKRNRNNIA (Aib at positions 2 and 16; Z at position 10 = Lys([(2-(2-(2-aminoethoxy)ethoxy)acetoyl)2]-[gamma glutamicacid]-[octadecanoyl])) [Compound 7],,,< 10,< 10
HXQGTFTSDXSKYLDXRRAQDFVQWLMNTK (Aib at positions 2 and 16; Z at position 10 = Lys([(2-(2-(2-aminoethoxy)ethoxy)acetoyl)2]-[gamma glutamicacid]-[octadecanoyl]); C-terminal amide (-NH2)) [Compound 6],,,< 10,< 10
HXQGTFTSDXSKYLDXRRAQDFVQWLMNTK (Aib at positions 2 and 16; Z at position 10 = Lys([Gly-Gly-Ser-Gly-Ser-Gly]-[gamma glutamic acid]-[octadecanoyl])) [Compound 11],,,,< 10
HXQGTFTSDXSKYLDXRRAQDFVQWLMNTK (Aib at positions 2 and 16; Z at position 10 = Lys([(2-(2-(2-aminoethoxy)ethoxy)acetoyl)2]-[gamma glutamicacid]-[octadecanoyl])) [Compound 3],,,< 10,< 10
HXQGTFTSDXSKYLDERRAKDFVQWLMNTK (not fully specified; Aib at position 2; Z at position 10 = Lys([(2-(2-(2-aminoethoxy)ethoxy)acetoyl)2]-[gamma glutamicacid]-[octadecanoyl]); a ring formed between E and K (positions 16 and 20) via glycine cross-link) [Compound 35],,,< 10,< 10
H[Aib]QGTFTSDK([AEEA-AEEA-γGlu-Stearoyl])SKYLDDRRAKDFVQWLMNTK (lactam 16-20) [Compound 26],,,< 10,< 10
H-H[Aib]QGTFTSDK([AEEA-AEEA-γGlu-Stearoyl])SKYLDDRRAKDFVQWLMNTK-OH (bridge 16-20; not fully specified (bridges); printed as H-HAibQGTFTSDZSKYLDDRRAKDFVQWLMNTK-OH) [Compound 37],,,< 10,< 10
"HXQGTFTSDXSKYLDERRAEDFVQWLMNTK (Aib at position 2; Z at position 10 = Lys([(2-(2-(2-aminoethoxy)ethoxy)acetoyl)2]-[gamma glutamicacid]-[octadecanoyl]); a ring formed between E and E (positions 16 and 20) via 1,2-ethylenediamino cross-link) [Compound 30]",,,< 10,< 10
HXQGTFTSDXSKYLDERRAKDFVQWLMNTK (Aib at position 2; Z at position 10 = Lys([(2-(2-(2-aminoethoxy)ethoxy)acetoyl)2]-[gamma glutamicacid]-[octadecanoyl]); a ring formed between E and K (positions 16 and 20) via 1-aminocyclohexan-4-carbonyl cross-link) [Compound 33],,,< 10,< 10
H[Aib]QGTFTSDK([AEEA-AEEA-γGlu-Stearoyl])SKYLD[Aib]RRAQDFVQWLLRAK [Compound 12],,,< 10,< 10
H[Aib]QGTFTSDYSKYLDK([AEEA-AEEA-γGlu-Stearoyl])RRAQDFVQWLMNTK [Compound 15],,,< 10,< 10
H[Aib]QGTFTSDYSKYLD[Aib]RRAK([AEEA-AEEA-γGlu-Stearoyl])DFVQWLMNTK [Compound 16],,,< 10,< 10

# From patent US20200354425A1 (DONG-A ST CO., LTD., published 2020)
